Experiments:
[1] = Binding of MJ0577 to ATP immobilized on a resin via the g-phosphate, analysis by PAGE; settings: after dialysis against GuHCl/urea
Description: (§1) The structure of MJ0577 was determined in the context of a structural genomics project aimed at elucidating protein function through 3D structural studies. […] Because the nucleotide was not added to buffers used during purification and crystallization, the authors concluded that ATP was scavenged from the growth media. […] Because the purification protocol developed here includes heating and dialysis at pH 5.2 steps, we believed that it was possible that the protein would be isolated as the ATP-free form. To test this hypothesis, the affinity of purified MJ0577 for the nucleotide mimicking resin, Cibacron Blue, was tested following the procedure successfully applied in the purification of an MJ0577 structural relative, E. coli YnaF (Saveanu et al. 2002). […] MJ0577 was dialyzed overnight against 8 M guanidinium HCl (GuHCl) 0.2 M TRIS pH 8.2, 5 mM DTT, then dialyzed overnight against 8 M urea, and finally equilibrated to non-denaturing conditions by dialysis against 25 mM sodium phosphate buffer pH 7.6. In a separate experiment, MJ0577 was dialyzed overnight against 2 M GuHCl in 25 mM L-histidine pH 5.6, 2 M GuHCl in 25 mM CHES pH 9.8, and 2 M GuHCl in 25 mM sodium phosphate buffer pH 7.8, 20% DMSO. Half of each sample was then heated at 40° C. for one hour. […] Such results can enable the ready establishment of proper conditions for a biotin-ATP substituted SAMA.

[2] = Zarembinski et al. 1998; cited from earlier work
[3] = Binding of purified MJ0577 to nucleotide mimicking resin Cibacron Blue; settings: 25 mM sodium phosphate buffer pH 7.6
Description: as §1

interaction with ATP resin [1]: essentially no interaction
binding to Cibacron Blue resin [3]: No binding was observed
B1: MJ0577: protein dimer isolated from the thermostable bacterium Methanococcus jannaschii, 162 residues, SEQ ID NO: 11; SAMA template (protein, listed as Methanococcus jannaschii)
chain: MSVMYKKILYPTDFSETAEIALKHVKAFKTLKAEEVILLHVIDEREIKKRDIFSLLLGVAGLNKSVEEFENELKNKLTEEAKNKMENIKKELEDVGFKVKDIIVVGIPHEEIVKIAEDEGVDIIIMGSHGKTNLKEILLGSVTENVIKKSNKPVLVVKRKNS
modifications: dimer
notes: SAMA template
thermostable to [2]: at least 80 °C

From patent US8993714B2, “Streptavidin macromolecular adaptor and complexes thereof” (Imiplex LLC, priority 2007, dated 2015)
